In assay [1] the target is T1, NDC80 Peptide A … / HLA-A*02:01 complex (human).
T1 construct: whole, on cells; On peptide-pulsed T2 cells (HLA-A*02:01+); also called NDC80/HLA-A*02:01 complex; NDC80/MHC I
In words: FACS, scFv phage on peptide-loaded T2 cells. For orientation: In flow cytometry, cells or beads pass a laser one at a time.
From the text: 34 human phage scFv libraries were used to pan against NDC80/HLA-A*02:01 complex. In order to avoid the conformational change of MHC I complex introduced by immobilizing the protein complex onto plastic surfaces, cell panning was used in place of conventional plate panning. In cell panning, the human scFv phage libraries were first mixed with T2 cells loaded with control peptides to remove scFv phage clones that bind to T2 cells alone or MHC alone. […] T2 is a TAP-deficient, HLA-A*02:01⁺ lymphoblast cell line that express low amounts of HLA-A*02 on the cell surface and can only present exogenous peptides. […] After extensive washing with PBS, peptide-loaded T2 cells with bound scFv antibody phage were spun down. […] The panning was performed for 3 rounds to enrich scFv phage clones that bound NDC80/HLA-A*02:01 specifically.

Assay [2] deals with T2, NC3 peptide … / HLA-A*02:01 complex (human).
T2 construct: whole, on cells; On pulsed T2 cells; also pulled down from BV173 lysate (HLA-A*02)
Briefly: FACS, scFv phage on T2 cells loaded with single peptide.

The target in assay [3] is T3, NC1 peptide … / HLA-A*02:01 complex (human).
T3 construct: whole, on cells; On pulsed T2 cells; also pulled down from BV173 lysate (HLA-A*02) and presented on JMN cells
The description is as above.

The target of assay [4] is T4, NC4 peptide … / HLA-A*02:01 complex (human).
T4 construct: whole, on cells; On pulsed T2 cells
The description is as above.

Assay [5] deals with T5, NC2 peptide … / HLA-A*02:01 complex (human).
T5 construct: whole, on cells; On pulsed T2 cells; also presented on JMN cells (HLA-A*02)
The assay is described as above.

The target in the next assay is T6, HLA-A*02:01 on T2 cells (human).
T6 construct: whole, on cells; MHC class I molecule of TAP-deficient T2 cells, stabilized by exogenous peptide and detected with BB7.2; also called A*02 protein
In words: HLA-A*02 stabilization on pulsed T2 cells, BB7.2 staining, flow cytometry.

17 molecules from US20230374140A1 (Memorial Sloan Kettering, published 2023) can be followed below.

Method for HLA-A*02:01 on T2 cells: Flow Cytometry. T2 cells were pulsed overnight with 50 μg/ml of one of the indicated peptides. Pulsed T2 cells were then stained with either BB7.2-PE antibody specific for HLA-A*02 to ensure stabilization of T2 cells with the pulsed peptides or with the labeled TCR mimic antibodies for 30 min on ice as described herein. Cells were washed after incubation with FACS buffer, resuspended in FACS buffer supplemented with DAPI and analyzed using a BD Fortessa™ flow cytometer.
For alanine screening assays, alanine or glycine substituted peptides were purchased from Genemed Synthesis, Inc. (San Antonio, Texas, USA). Besides the unsubstituted sequence of [sequence] […] If in the original peptide sequence the amino acid present was an alanine, the amino acid was changed to glycine. All other amino acids were changed into alanines.

B1: Clone 12 scFv phage clone (scFv, V domains shown)
VH: QVQLQESGPGLVKPSGTLSLTCAVSGGSISSSNWWSWVRQAPGKGLEWIGEIYHGGSTNFNPSLKSRVTISVDKSKNQFSLNLTSVTAADTAVYYCARYASSSHDFWGQGTLVTVSS
VL: QSVLTQPPSVSAAPGQRVTIYCSGSRSNIVSNYVSWYQQLPGTAPKLLIYDNNKRPSGIPDRFSGSKSGTSATLGITGLQTGDEADYYCGTWDSSLSAYVFGTGTKVAVLG
On to B1, for which, in assay [1], the binding result is recorded as “binds”.

B2: Clone 2 scFv phage clone (scFv, V domains shown)
VH: QVQLVQSGAEVKKPGSSVKVSCKASGGTFSSYAISWVRQAPGQGLEWMGWISAYNGNTNYAQKLQGRVTMTTDTSTSTAYMELRSLRSDDTAVYYCARKGFYSGFDSWGQGTLVTVSS
VL: QSVLTQPPSVSAAPGQKVTISCSGSSSNIGSNYVSWYQQLPGTAPKLLIYDNTKRPSGIPDRFSGSKSGSSATLGITGLQTGDEADYYCETLDSSLSAYVFGTGTKVTVLG
notes: also called phage clone 2
B2: the binding result in assay [1] is given as “binds”.

B3: Clone 15 scFv phage clone (scFv, V domains shown)
VH: QVQLQESGPGLVKPSGTLSLTCAVSGGSISSSNWWSWVRQPPGKGLEWIGEIYHSGSTNYNPSLKSRVTISVDKSKNQFSLKLSSVTAADTAVYYCARYPGFVWDLWGQGTLVTVSS
VL: QSVLTQPPSVSAAPGQKVTISCSGSSSNIGSNYVSWYQQLPGTAPKLLIYDNNKRPSGIPDRFSGSKSGTSAILGITGLQTGDEADYYCGTWDSSLTAGVFGTGTKVTVLG
For the molecule B3, the binding result in assay [1] is given as “binds”.

B4: Clone 10 scFv phage clone (scFv, V domains shown)
VH: QVQLQESGPGLVKPPGTLSLTCAVSGGSISSSNWWSWVRQPPGKGLEWIGEIYHSGSTNYNPSLNSRVIISDDTSKNQFSLTLTSVTAADTAVYYCARYYNSYYDSWGQGTLVTVSS
VL: QSVLTQPPSVSAAPGQKVTISCSGSSSNIGSNYVSWYQQLPGTAPKLLIYDNNKRPSGIPDRFSGSKSGTSATLGITGLQTGDEADYYCGTWDSSLSAYVFGTGTKVTVLG
With B4, the binding result in assay [1] was “binds”.

B5: Clone 8 scFv phage clone (scFv, V domains shown)
VH: QLQLQESGPGLVKPSETLSLTCTVSGDSISGYYWSWIRQPPGKGLEWIGEINHSGSTNYNPSLKSRVTISVDTSKNQFSLKLSSVTAADTAVYYCARYYSGFYSSDGWGQGTLVTVSS
VL: QSVLTQPPSVSAAPRQKVTISCSGSSSNIGSNYVSWYQQLPGTAPKLLIYDNNKRPSGIPDRFSGSRSGTSATLGITGLQTGDEADYYCGSWDSSLSVYVFGTGTKVTVLG
On to B5, for which the binding result in assay [1] is given as “binds”.

B6: Clone 9 scFv phage clone (scFv, V domains shown)
VH: QVQLQESGPGLVKPPGTLSLTCAVSGGSISSSNWWSWVRQPPGKGLEWIGEIYHSGSTNYNPSLKSRVTISVDKSKNQFSLKLSSVTAADTAVYYCARYEQGSHDSWGQGTLVTVSS
VL: QSVLTQPPSVSAAPGQKVTISCSGSSSNIGSNYISWYQQLPGTAPKLLIYDNSKRPSGIPDRFSGFKSGTSATLGITGLQTGDEADYYCGTWDSSLSAYVFGSGTKVTVLG
Regarding B6, in assay [1], the binding result is “binds”.

B7: Clone 14 scFv phage clone (Clone 14 scFv) (scFv)
scFv: QSVLTQPPSVSAAPGQRVTISCSGSTSNIGSNYVSWYQQFPGTAPKLLIYDSDKRISGIPDRFSGSKSGTSATLGITGLQTGDEADYYCGTWDSSLTVGVFGGGTKVTVLGSRGGGGSGGGGSGGGGSLEMAQLQLQESGPGLVKPSGTLSLTCAVSGGSISSSNWWSWVRQPPGKGLEWIGEIYHSGSTNYNPSLKSRVTISVDKSKNQFSLKLSSVTAADTAVYYCARYFGQKYDYWGQGTLVTVSS
Turning to B7, the binding result in assay [2] was “no binding”; in assay [3], “no binding”; in assay [4] it was “no binding”; in assay [5], “no binding”; in assay [1], “binds”.

B8: Clone 1 scFv phage clone (Clone 01 scFv) (scFv)
scFv: DIQLTQSPSSLSASVGDRVTITCRASQGIRNDLGWYQQKPGKAPKLMIYAASSLQSGVPSRFSGSGSGTDFTLTISSLQPEDFATYYCLQDYDYPLTFGGGTKLEIKRSRGGGGSGGGGSGGGGSLEMAEVQLVQSGAEVKKPGESLKISCEASGYSFSSNWIAWVRQRPGKGLEWMGIIYPGDSDTRYSPSFQGQVTMSADMSISTAYLQWSSLKASDTAMYYCARFAGPGMWSYGFDYWGQGTLVTVSS
notes: also called phage clone 1
Take B8: the binding result in assay [2] was “no binding”; in assay [3] it was “no binding”; in assay [4], “no binding”; in assay [5] it was “no binding”; in assay [1], “binds”.

B9: Clone 6 scFv phage clone (scFv, V domains shown)
VH: QVQLQQWGAGLLKPSETLSLTCAVYGGSFSGYYWSWIRQPPGKGLEWIGEINHSGSTNYNPSLKSRVTISVDTSKNQFSLKLSSVTAADTAVYYCARLEGSYYDVWGQGTLVTVSS
VL: QSVLTQPPSVSAAPGQKVTVSCSGTTSDIGSNYVTWYQQLPGTTPKLIIYDNNKRPSGIPDRFSGSKSGTSGTLGITGLQTGDEADYYCGTWDSSLNTFVFGTGTKVTVLG
Consider B9, for which the binding result in assay [1] is reported as “binds”.

B10: Clone 19 scFv phage clone (Clone 19 scFv) (scFv)
scFv: NFMLTQPHSVSESPGKTVTISCVRSSGSVASEFVQWYQQRPGHAPTLVIYNDFQRPSGVPDRFSGSIDKSSNSASLTISGLKAEDEADYYCQSYDQSSSIVFGGGTKLTVLGSRGGGGSGGGGSGGGGSLEMAEVQLVQSGAEVKKPGESLKISCKGSGYSFTTYWIGWVRQMPGKGLEWMGIIYPGDSDTTYSPSFQGQVTISADKSLSIAYLQWSSLKASDTAMYYCARYGGQYFWSDSFDSWGQGTLVTVSS
In the case of B10, the binding result was “no binding” in assay [2]; “no binding” in assay [3]; “no binding” in assay [4]; “no binding” in assay [5]; “binds” in assay [1].

B11: Clone 11 scFv phage clone (Clone 11 scFv) (scFv)
scFv: NFMLTQPHSVSESPGKTVTISCTRSSGSIASNYVQWYQQRPGSAPTTVIYEDNQRPSGVPDRFSGSIDSSSNSASLTISGLKTEDEADYYCQSYDSSNVVFGGGTKLTVLGSRGGGGSGGGGSGGGGSLEMAQVQLVQSGAEVRKPGASVKVSCKASGYSFTSNGITWVRQAPGQGLEWMGWISGYNANTRYAQEFQARVTMTTDTSASTAYMELRSLRSDDTAVYYCARHAYWGGDSDYWGQGTLVTVSS
Regarding B11, the binding result was “no binding” in assay [2]; “no binding” in assay [3]; “no binding” in assay [4]; “no binding” in assay [5]; “binds” in assay [1].

B12: Clone 4 scFv phage clone (scFv, V domains shown)
VH: QVQLQQWGAGLLKPSETLSLTCAVYGGSFSGYYWSWIRQPPGKGLEWIGEINHSGSTNYNPSLKSRVTISVDTSKNQFSLKLSSVTAADTAVYYCARGVPYDYWGQGTLVTVSS
VL: QSVLTQPPSVSAAAGQKVTISCSGSRSNIGSNFVSWYQLLPGTAPRLLIYDNNVRPSGIPDRFSGSKSGSSATLGITGLQTGDEADYYCGTWDSSLIAGVFGGGTKLTVLG
Regarding B12, the binding result in assay [1] was “binds”.

B13: NDC80 Peptide A ALNEQIARL (synthetic peptide) (peptide)
peptide: ALNEQIARL
notes: Free peptide pulsed on T2 cells at 50 µg/ml in the HLA-A*02 stabilization assay; also called unmodified peptide; wild-type peptide
In the case of B13, the binding result in the assay with HLA-A*02:01 on T2 cells is “binds”.

B14: Clone 7 scFv phage clone (Clone 07 scFv) (scFv)
scFv: QSVVTQPPSVSGAPGQRITISCTGSSSNIGAGYDVHWYQQLPGTAPKLLIFGNVNRPSGVPDRFSGSKSGTSASLAITGLQAEDEADYYCQSYDSSLSGWVFGGGTKLTVLGSRGGGGSGGGGSGGGGSLEMAQVQLQQSGAEVKKPGATVKVSCKASGYTFTSYGISWVRQAPGQGLEWMGWISAYNGNTNYAQKLQGRVTMTTDTSTSTAYMELRSLRSDDTAVYYCARMSMSEYIDYWGQGTLVTVSS
As for B14, the binding result is reported as “no binding” in assay [2]; “no binding” in assay [3]; “no binding” in assay [4]; “no binding” in assay [5]; “binds” in assay [1].

B15: Clone 16 scFv phage clone (scFv, V domains shown)
VH: QVQLVQSGAEVKKPGASVKVSCKASGYTFTSYYMHWVRQAPGQGLEWMGIINPSGGSTSYAQKFQGRVTMTRDTSTSTVYMELSSLRSEDTAVYYCARRGWLSWGYYGMDVWGQGTTVTVSS
VL: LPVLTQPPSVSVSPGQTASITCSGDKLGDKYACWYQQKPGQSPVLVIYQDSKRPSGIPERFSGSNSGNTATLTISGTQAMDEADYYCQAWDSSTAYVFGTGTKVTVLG
Regarding B15, the binding result in assay [1] was “binds”.

B16: Clone 5 scFv phage clone (scFv, V domains shown)
VH: QLQLQESGPGLVKPSGTLSLTCAVSGGSISSSNWWSWVRQPPGKGLEWIGEIYHSGSTNYNPSLKSRVTISVDKSKNQFSLKLSSVTAADTAVYYCARFIYGSSSSQTDTWGQGTLVTVSS
VL: QSVLTQPPSVSAAPGQKVTISCSGSSSNIGSNYIYWYQQFPGTAPKLLIYDDNKRPSGIPDRFSGSRSGTSATLGITGLQTGDEADYYCGTWDSPLVAWVFGGGTKLTVLG
For B16, the binding result in assay [1] was “binds”.

B17: Clone 18 scFv phage clone (Clone 18 scFv) (scFv)
scFv: QSVLTQPPSVSVAPGQKVTISCSGSSSNIGNNYVSWYQQLPGTAPKLLIYDNNKRPSGIPDRFSGSKSGTSATLGITGLQTGDEADYYCQSYDVYNMTSVFGGGTKLTVLGSRGGGGSGGGGSGGGGSLEMAQMQLVQSGAEVKKPGSSVKVSCKASGGTFSSYAISWVRQAPGQGLEWMGGIIPIFGTANYAQKFQGRVTITADESTSTAYMELSSLRSDDTAVYYCARGFSSWPGIDQWGQGTLVTVSS
On to B17, for which the binding result in assay [2] was “no binding”; in assay [3], “no binding”; in assay [4] it was “no binding”; in assay [5], “no binding”; in assay [1], “binds”.
